Test results reported in the DeepSol protein solubility set.

Assay: soluble on expression in E. coli; label from the status in PepcDB or PDB records

Row | Sequence | soluble on expression in E. coli
1 | MGSDKIHHHHHHMIDFIISIDDCAVELDSRQSWKIRYPLSTILFLVFVCQLAGIETWKEMEDFIEMNEPLFATYVDLSEGCPSHDTLERVISLVNSDRLKELKVQFEQSLTSLDAVHQLISVDGKTIRGNRGKNQKPVHIVTAYDGGHHLSLGQVAVEEKSNEIVAIPQLLRTIDIRKSIVTIDAMGTQTAIVDTIIKGKADYCLAVKGNQETLYDDIALYFSDVNLLEELQENAQYYQTVEKSRGQIEVREYWVSSDIKWLCQNHPKWHKLRGIGMTRNTIDKDGQLSQENRYFIFSFKPDVLTFANCVRGHWQIESMHWLLDVVYHEDHHQTLDKRAAFNLNLIRKMCLYFLKVMVFPKKDLSYRRKQRYISVHLEDYLVQLFGERG | not soluble
2 | LTVHYDLQLYKINYKTQSPDGNLTIASGLVAMPIHPVGQVGIISYQHGTRFERNDVPSRNNEKNYIYLAAYGNSAGYMTVMPDYLGLGDNELTLHPYVQAETLASSSIDMLFAAKELANRLHYPISDKLYLAGYSEGGFSTIVMFEMLAKEYPDLPVSAVAPGSAPYGWEETMHFVMLEPGPRATAYLAYFFYSLQTYKSYWSGFDEIFAPPYNTLIPELMDGYHAVDEILQALPQDPLLIFQPKFSNGIISKTDRNTEILKINFNHYDFKPTAPLLLVGTKGDRDVPYAGAEMAYHSFRKYSDFVWIKSVSDALDHVQAHPFVLKEQVDFFKQFERQE | not soluble
3 | MGSDKIHHHHHHMSIIFDKNLGILEKTIEEIQNEKKHILRTKYGINIKDNSIYDIINFPSSSIDKQISEVLKELFSKIKENGSYFNALKEDLSTPKSSTYEAIRKALLNVEGVKHINILSGPGTINLYLILQDDCFQDQEKKQIKIETKQNIWQAIYYTAPSGTVFKGDIEIEFLNKHNQKKTYKFSLGKKKYAYLKVVYKTEAKDAIYKEIDTQIRDIYNKILTDKYIEMGTSLRYQDFLAPVSIIRGIKELKIGICIKNDETKKITQLSDSDFTFNKDENTKEDEIIIFNTNKRLLINRE | not soluble
4 | VQQLSLFGSIGDDGYDLLISTLTTISGNPPLLYNSLCTVWKPNPSYDVENVNSRNQLVEPNRIKLSKEVPFSYLIDETMMDKPLNFRILKSFTNDKIPLNYAMTRNILHNTVPQVTNFNSTNEDQNNSKHTEDTVNESRNSDDIIDVDMDASPAPSNESCSPWSLQISDIPAAGNNRSVSMQTIAETIILSSAGKNSSVSSLMNGLGYVFEFQYLTIGVKFFMKHGLILELQKIWQIEEAGNSQITSGGFLLKAYINVSRGTDIDRINYTETVLMNLKKELQGYIELSVPDRQSMDSRVAHGNILIAAALEHHHHHH | soluble
5 | GQLNVEHRQFLSQGLQGQSKGQSSVVVQPELYWDFQSGESSFTFTPFFRVDSLDDERTHCDIREALFLTYWDDYELRVGISKVFWGVTESAHLVDVVNQTDAVEAVDGEDKLGQPMVHFTAIKDWGAFHAMVLPYFRERTFAGQDGRLRTEPVISDNAIYESSREEKHIDVAFRYSKMLGDWDIGLSYLYGTNRDPYFRFEQGELKPYYALMSHFGIDVQGIVGDWLWKLESVYRDSYDHHVGVVTGFE | not soluble
6 | MARFSSVLIYDGECPYCSVAAKALEQVDDIGAISWYDESAQSFLTAQFDEPPFAMVLVDRPAQQVYAGRAAAEELAGRAGLPDLVGSLVRDNYEKIAHVVGLASGRGREPDDVHERYVLADDAQDRFDTLAKDAVDRDIRADALEHHHHHH | soluble
7 | MGSDKIHHHHHHMKNYKIVAIGDNVCDKYLSRGKMYPGGQCINTCVYGKMNGAETAYIGKYGNDEVAECVQNTLKEIGIDDSHCRHYEGENGFALVTLKNADRVFLGSNKGGIAKEHSYNFDENDFEYIKKFDLIYTNLNSYIEDNLKELHATGVPIAYDFSMRWTDEYLLKVCPYIDVAILSCAHLTAEEREKEMKKVQNYGVKIVLGTIGEDGSYVLYNGDFLYTSAIMAANIIDTMGAGDSYFSTFLCSLLQTSETGKLVEGTKESMKIRLESAMKSGAIFAANVCGMEGAFGYGVPIQGKTEI | not soluble
8 | MERRLIFGTIASKMSLAPEADLDSLIIRNDSLSGAVIAAIMQEAGLRAVRKNRYVILQSDLEEAYATQVKTDNTVDKFDFYK | soluble
9 | MYPHIHRYKFESKNTNRHNHKIIGYTDNMIGIEAFHIHAYYGISSYNGHTHYFSGFTGLPIKTENGHIHRIEGILESASDHEHVYRNYTDENIEYISHSILKHAYV | not soluble
10 | MGSDKIHHHHHHMNTTHAVPSITPNNDPWEAYDDIKMFGKPTLTNIEVTTTTLCNMRCEHCAVGYTLQTKDPDALPLDLLLRRLDEIPHLRAFSITGGEPMLSKKSVESYVVPLLRYAHERGARTQINSNLTLNIERYEKILPYLDVLHISHNYGSINDFTDIGFAVMERKPSIEQREALFHRMVENAKMLTQEGVFVSAETMINKRTLPHLEKIHEQIVSMGCQRHEVHPMYPSDFASALDVASLDEIRKGIHRLLDARDKKTWMLFGTLPFYPCSDQEEDLMLLKRLYGEPNVTVRNDPDGRSRLNVNLFDGNIIVTDFGDTPPLGNIMTTSFIEAYEKWQHSEISKELSCHCPMAECLGPNILVKNTYYRGVDFHKRKAVLHK | not soluble
11 | MGSDKIHHHHHHAQRINHVQEAIANYDYEAALTLIAKEKPTIPLLLQKGKAQRGLGMNTEALSTYQEIIANDTANTRAYIEAAECCRSLAKYQQALKYYEQALDLNPENKYVRIQYIGLLLSLQKFQDALGESSLMTEKDSSAIALHLQAQSFEGMGELLPATGCYYNIQEKYPDDYLAAAKLAALNIAGSYFNEAIEATEKYRQTDTTNIAVNRQNALAYCLNKDYPTAIQRYEYLVSQGDSSFHTCYYLGISYYAEEKYYEAHDFLEAARKHDPENVNLLYYLGRACAKTSWKKLGVEYLEKALDLTIPKDSNMVRLYIGMTDCYKMAQMPKEQIESIRERYRKYDKQNHKLLYDMAFIYFYSLKDKKNTERCLEAFLKTRPKEDKEEEAKLNERGELVLGTKNYYNAAANWLKDIQSKQKIEDFFLGGNVPAQKPE | not soluble
12 | LLLNLFNFRNFKDLFRNDINMMTVEEILYNEIKEFQASDRRAWMVIGDRYYRCENDILNRRIVRHTESGDIEDRSKANNRLAHGFVKNLVDEKIGYLLTKDYSLKCDNKEYIEKVKNVLGKYFQYTLTRLGYEASNKGIAWLQVYINEQGKFGMMIIPAEQCVPLWKDNTHTELYGMIRYYVQTVYEGKEKKQITRVEYYTDKEVYFYVLDNDHLIPDIEQYEGGPILHYKKGEEGRSWGKVPFIAWKNNHLEYPDVKFIKSLVDAYDKSRSEIDNFIEETKNLIYVLKGYGGENLSDFMKDLNYYRAIKIDDPEHGGVDTLTPKIDIQAAKEHFEQLKRDINEFGQGVPKDLDKYGNSPSGTALKFLYSGLDLKCNHLEVEFRQSFNQLLYFVNRYLAENGQGNYENENVELIFNRDIQINETETINNCVNSKGIISDETILANHPWVSDVEEELKQIEKERKSEEPPMFGEGDEE | soluble
13 | MHRTYSLRNSRAPTASQLQNPPPPPSTTKGRFFGKGGLAYSFRRSAAGAFGPELSRKLSQLVKIEKNVLRSMELTANERRDAAKQLSIWGLENDDDVSDITDKLGVLIYEVSELDDQFIDRYDQYRLTLKSIRDIEGSVQPSRDRKDKITDKIAYLKYKDPQSPKIEVLEQELVRAEAESLVAEAQLSNITRSKLRAAFNYQFDSIIEHSEKIALIAGYGKALLELLDDSPVTPGETRPAYDGYEASKQIIIDAESALNEWTLDSAQVKPTLSFKQDYEDFEPEEGEEEEEEDGQGRWSEDEQEDGQIEEPEQEEEGAVEEHEQVGHQQSESLPQQTTA | soluble
14 | MEGNQAGSSLDSLIASFNKRIGELQELVIARNMYPASTIPDLSAIDTALSSMELQVQSIKDRLREETEAIPKAKKLIEASLKQQGKLQKMSIYAPSHFPDKATMLNSDLNRCLLQENAKQYEQHSTLSSLKFDEEAAVLPKEKKGRGSPPLWYITVEELNSLSSYMRGRLTLEKVNAAINDMASYAEANAHLIAASKQKLAENLWEKALKLRDIVTEQAVKGKHFFLETDMKGPSLKLDNTGKAILTVLRHLGRISETRIGQNRVIILMKPH | soluble
15 | MSLKTLSDDLYKQFSNFLAVQSGIVLGDNKQYLVKSRLSPLMTQFGIESLSDLVTRAMSVRERDLKMAVVDAMTTNETLWFRDTYPFQLLTDKIFPELGKSGRPIKIWSAASSSGQEPYSIAMTALEQQVKKPGTLPGGVQIVGTDISSTMLNQCKEGVYDSLALARGLSPERKKLFFEPYGDNKMRVVERVRKLTTFRPLNLLESYSLLGKFDIIFCRNVLIYFAPEVKSKILNQFAASLNPGGYLMLGASESLAGLTDRFEMIRCNPGIVYKVKEGHHHHHH | soluble
